B1: HA-TRAF2 (other, human, UniProt Q12933 1-501, looked up)
chain: MAAASVTPPGSLELLQPGFSKTLLGTKLEAKYLCSACRNVLRRPFQAQCGHRYCSFCLASILSSGPQNCAACVHEGIYEEGISILESSSAFPDNAARREVESLPAVCPSDGCTWKGTLKEYESCHEGRCPLMLTECPACKGLVRLGEKERHLEHECPERSLSCRHCRAPCCGADVKAHHEVCPKFPLTCDGCGKKKIPREKFQDHVKTCGKCRVPCRFHAIGCLETVEGEKQQEHEVQWLREHLAMLLSSVLEAKPLLGDQSHAGSELLQRCESLEKKTATFENIVCVLNREVERVAMTAEACSRQHRLDQDKIEALSSKVQQLERSIGLKDLAMADLEQKVLEMEASTYDGVFIWKISDFARKRQEAVAGRIPAIFSPAFYTSRYGYKMCLRIYLNGDGTGRGTHLSLFFVVMKGPNDALLRWPFNQKVTLMLLDQNNREHVIDAFRPDVTSSSFQRPVNDMNIASGCPLFCPVSKMEAKNSYVRDDAIFIKAIVDLTGL
notes: also called 外源HA-TRAF2; not shown: HA tag
B2: SHP-1 (enzyme)
chain: not shown
notes: also called 内源性SHP-1; 外源SHP-1
B3: B3ICDhFc (LILRB3胞内结构域, C末端与hFc融合) (Fc fusion, human, UniProt O75022 465-631, looked up)
chain: RRQRHSKHRTSDQRKTDFQRPAGAAETEPKDRGLLRRSSPAADVQEENLYAAVKDTQSEDRVELDSQSPHDEDPQAVTYAPVKHSSPRREMASPPSSLSGEFLDTKDRQVEEDRQMDTEAAASEASQDVTYAQLHSLTLRRKATEPPPSQEGEPPAEPSIYATLAIH
notes: domain: 胞内结构域; Purified for the in vitro pull-down with GST-TRAF2; not shown: human Fc (hFc) fused at the C-terminus
B4: TRAF2 (other, human, UniProt Q12933 2-501, looked up)
chain: AAASVTPPGSLELLQPGFSKTLLGTKLEAKYLCSACRNVLRRPFQAQCGHRYCSFCLASILSSGPQNCAACVHEGIYEEGISILESSSAFPDNAARREVESLPAVCPSDGCTWKGTLKEYESCHEGRCPLMLTECPACKGLVRLGEKERHLEHECPERSLSCRHCRAPCCGADVKAHHEVCPKFPLTCDGCGKKKIPREKFQDHVKTCGKCRVPCRFHAIGCLETVEGEKQQEHEVQWLREHLAMLLSSVLEAKPLLGDQSHAGSELLQRCESLEKKTATFENIVCVLNREVERVAMTAEACSRQHRLDQDKIEALSSKVQQLERSIGLKDLAMADLEQKVLEMEASTYDGVFIWKISDFARKRQEAVAGRIPAIFSPAFYTSRYGYKMCLRIYLNGDGTGRGTHLSLFFVVMKGPNDALLRWPFNQKVTLMLLDQNNREHVIDAFRPDVTSSSFQRPVNDMNIASGCPLFCPVSKMEAKNSYVRDDAIFIKAIVDLTGL
notes: also called 内源TRAF2

Legend:
[1] = molecular target: T1, LILRB3 QEE509-511AAA突变体 (human, UniProt O75022 24-631); assay: co-IP in 293T cells
T1 construct: It is probably hFc-fused like the other LILRB3 constructs; also called B3AAA

[2] = molecular target: 氨基酸505-515缺失的LILRB3 (human, UniProt O75022 24-631); assay: co-IP in 293T cells
[3] = molecular target: T2, LILRB3-hFc (全长LILRB3, C末端hFc标签) (human, UniProt O75022 24-631); assay: co-IP of HA-TRAF2 with hFc-fused LILRBs in 293T cells
T2 construct: whole, on cells; also called hFc加标签的B3-FL; not shown: human Fc (hFc) fused at the C-terminus in the pFLAG-CMV5.1 vector

[4] = molecular target: T2, LILRB3-hFc (全长LILRB3, C末端hFc标签); assay: co-IP in THP-1 cells stably expressing LILRB3-hFc
[5] = molecular target: FLAG-cFLIP (human, UniProt O15519 1-480); assay: co-IP in 293T cells
Sequence of FLAG-cFLIP (O15519 whole entry): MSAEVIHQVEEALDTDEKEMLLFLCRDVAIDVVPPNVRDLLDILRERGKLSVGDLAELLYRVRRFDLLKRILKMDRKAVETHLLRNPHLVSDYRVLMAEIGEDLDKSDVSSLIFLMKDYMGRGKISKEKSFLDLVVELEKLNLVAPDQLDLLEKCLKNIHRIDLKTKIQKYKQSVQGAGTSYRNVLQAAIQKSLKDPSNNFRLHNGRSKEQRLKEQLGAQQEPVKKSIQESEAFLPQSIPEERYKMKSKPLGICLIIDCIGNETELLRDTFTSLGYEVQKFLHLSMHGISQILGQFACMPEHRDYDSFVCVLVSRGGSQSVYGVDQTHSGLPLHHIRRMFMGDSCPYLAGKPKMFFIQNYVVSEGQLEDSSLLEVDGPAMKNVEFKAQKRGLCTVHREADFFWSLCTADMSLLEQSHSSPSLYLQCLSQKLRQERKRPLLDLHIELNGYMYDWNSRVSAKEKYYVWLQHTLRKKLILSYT

[6] = molecular target: B1; assay: co-IP in 293T cells with or without FLAG-A20N (Fig 6j)
[7] = molecular target: T3, LILRB3 (白细胞免疫球蛋白样受体亚家族B成员3), full length (human, UniProt O75022 24-631); assay: co-IP from primary M5 AML cells with human anti-LILRB3 antibody
T3 construct: whole, on cells; also called B3-FL; 全长LILRB3

[8] = molecular target: T2, LILRB3-hFc (全长LILRB3, C末端hFc标签); assay: co-IP of endogenous TRAF2 with LILRB3-hFc in THP-1 cells, with LPS or PBS

## B1
[1]
  binding result: no binding
[2]
  binding result: no binding
[3]
  binding result: binds

## B2
[4]
  binding result: binds

## B3
[5]
  binding result: no binding
[6]
  binding result: binds

## B4
[7]
  binding result: binds
[8]
  binding result: binds
